In patent US20110263454A1, “Methods of Identifying Functional Characteristics of Promoters, Transcription Modifying Proteins and Transcription Modulating Agents” (Salk Institute for Biological Studies, priority 2008, published 2011):

B1: RARa: Retinoic acid receptor α (NR1B1), nuclear hormone receptor cDNA driver (protein, UniProt P10276 1-462, looked up)
Retinoic acid receptor alpha: MASNSSSCPTPGGGHLNGYPVPPYAFFFPPMLGGLSPPGALTTLQHQLPVSGYSTPSPATIETQSSSSEEIVPSPPSPPPLPRIYKPCFVCQDKSSGYHYGVSACEGCKGFFRRSIQKNMVYTCHRDKNCIINKVTRNRCQYCRLQKCFEVGMSKESVRNDRNKKKKEVPKPECSESYTLTPEVGELIEKVRKAHQETFPALCQLGKYTTNNSSEQRVSLDIDLWDKFSELSTKCIIKTVEFAKQLPGFTTLTIADQITLLKAACLDILILRICTRYTPEQDTMTFSDGLTLNRTQMHNAGFGPLTDLVFAFANQLLPLEMDDAETGLLSAICLICGDRQDLEQPDRVDMLQEPLLEALKVYVRKRRPSRPHMFPKMLMKITDLRSISAKGAERVITLKMEIPGSMPPLIQEMLENSEGLDTLSGQPGGGGRDGGGLAPPPGSCSPSLSPSSNRSSPATHSP
B2: RARg: Retinoic acid receptor γ (NR1B3), nuclear hormone receptor cDNA driver (protein, UniProt P13631 1-454, looked up)
Retinoic acid receptor gamma: MATNKERLFAAGALGPGSGYPGAGFPFAFPGALRGSPPFEMLSPSFRGLGQPDLPKEMASLSVETQSTSSEEMVPSSPSPPPPPRVYKPCFVCNDKSSGYHYGVSSCEGCKGFFRRSIQKNMVYTCHRDKNCIINKVTRNRCQYCRLQKCFEVGMSKEAVRNDRNKKKKEVKEEGSPDSYELSPQLEELITKVSKAHQETFPSLCQLGKYTTNSSADHRVQLDLGLWDKFSELATKCIIKIVEFAKRLPGFTGLSIADQITLLKAACLDILMLRICTRYTPEQDTMTFSDGLTLNRTQMHNAGFGPLTDLVFAFAGQLLPLEMDDTETGLLSAICLICGDRMDLEEPEKVDKLQEPLLEALRLYARRRRPSQPYMFPRMLMKITDLRGISTKGAERAITLKMEIPGPMPPLIREMLENPEMFEDDSSQPGPHPNASSEDEVPGGQGKGGLKSPA
B3: PPARd: Peroxisome proliferator activated receptor δ (NR1C2), cDNA driver (protein, UniProt Q03181 1-441, looked up)
Peroxisome …: MEQPQEEAPEVREEEEKEEVAEAEGAPELNGGPQHALPSSSYTDLSRSSSPPSLLDQLQMGCDGASCGSLNMECRVCGDKASGFHYGVHACEGCKGFFRRTIRMKLEYEKCERSCKIQKKNRNKCQYCRFQKCLALGMSHNAIRFGRMPEAEKRKLVAGLTANEGSQYNPQVADLKAFSKHIYNAYLKNFNMTKKKARSILTGKASHTAPFVIHDIETLWQAEKGLVWKQLVNGLPPYKEISVHVFYRCQCTTVETVRELTEFAKSIPSFSSLFLNDQVTLLKYGVHEAIFAMLASIVNKDGLLVANGSGFVTREFLRSLRKPFSDIIEPKFEFAVKFNALELDDSDLALFIAAIILCGDRPGLMNVPRVEAIQDTILRALEFHLQANHPDAQYLFPKLLQKMADLRQLVTEHAQMMQRIKKTETETSLHPLLQEIYKDMY
B4: RVRb: Rev-Erb β (NR1D2, alternative name RVR), cDNA driver (protein, UniProt Q14995 1-579, looked up)
Nuclear receptor subfamily 1 …: MEVNAGGVIAYISSSSSASSPASCHSEGSENSFQSSSSSVPSSPNSSNSDTNGNPKNGDLANIEGILKNDRIDCSMKTSKSSAPGMTKSHSGVTKFSGMVLLCKVCGDVASGFHYGVHACEGCKGFFRRSIQQNIQYKKCLKNENCSIMRMNRNRCQQCRFKKCLSVGMSRDAVRFGRIPKREKQRMLIEMQSAMKTMMNSQFSGHLQNDTLVEHHEQTALPAQEQLRPKPQLEQENIKSSSPPSSDFAKEEVIGMVTRAHKDTFMYNQEQQENSAESMQPQRGERIPKNMEQYNLNHDHCGNGLSSHFPCSESQQHLNGQFKGRNIMHYPNGHAICIANGHCMNFSNAYTQRVCDRVPIDGFSQNENKNSYLCNTGGRMHLVCPMSKSPYVDPHKSGHEIWEEFSMSFTPAVKEVVEFAKRIPGFRDLSQHDQVNLLKAGTFEVLMVRFASLFDAKERTVTFLSGKKYSVDDLHSMGAGDLLNSMFEFSEKLNALQLSDEEMSLFTAVVLVSADRSGIENVNSVEALQETLIRALRTLIMKNHPNEASIFTKLLLKLPDLRSLNNMHSEELLAFKVHP
B5: RARb: Retinoic acid receptor β (NR1B2), nuclear hormone receptor cDNA driver (protein, UniProt P10826 1-455, looked up)
Retinoic acid receptor beta: MTTSGHACPVPAVNGHMTHYPATPYPLLFPPVIGGLSLPPLHGLHGHPPPSGCSTPSPATIETQSTSSEELVPSPPSPLPPPRVYKPCFVCQDKSSGYHYGVSACEGCKGFFRRSIQKNMIYTCHRDKNCVINKVTRNRCQYCRLQKCFEVGMSKESVRNDRNKKKKETSKQECTESYEMTAELDDLTEKIRKAHQETFPSLCQLGKYTTNSSADHRVRLDLGLWDKFSELATKCIIKIVEFAKRLPGFTGLTIADQITLLKAACLDILILRICTRYTPEQDTMTFSDGLTLNRTQMHNAGFGPLTDLVFTFANQLLPLEMDDTETGLLSAICLICGDRQDLEEPTKVDKLQEPLLEALKIYIRKRRPSKPHMFPKILMKITDLRSISAKGAERVITLKMEIPGSMPPLIQEMLENSEGHEPLTPSSSGNTAEHSPSISPSSVENSGVSQSPLVQ

Key:
[1] = system: hPOMC promoter; test: NHR-promoter luciferase screen, hPOMC promoter; assay type: cell-based, human; conditions: for Luc. act., normalized to lacZ / Normalized Luc. act., normalized to control: hPOMC promoter, HR/ligand component; for hPOMC promoter reporter activity: transcription factor +/- ligand, control = 1.00
In short: (§1)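 CV-1 cells were co-transfected with 50 ng NHR (homodimer or NHR/RXR heterodimer), 100 ng promoter-luciferase construct and 50 ng LacZ. Luciferase was normalized to LacZ and to a no-NHR/no-ligand control.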

[2] = system: mCAR promoter; test: NHR-promoter luciferase screen, mCAR promoter; assay type: cell-based, mouse; conditions: for luciferase activity normalized to lacZ activity and to a control, mCAR: mCAR promoter-luciferase, CV-1 cells, NHR +/- ligand, control = 1.00; for Luc. act., normalized to lacZ / Normalized Luc. act., normalized to control: mCAR promoter, HR/ligand component
In short: as §1

[3] = system: mDio1 promoter; test: NHR-promoter luciferase screen, mDio1 promoter; assay type: cell-based, mouse; conditions: for Luc. act., normalized to lacZ / Normalized Luc. act., normalized to control: Dio1, HR component without or with its ligand; for mDio1 promoter reporter activity: transcription factor +/- ligand, control = 1.00
In short: as §1

[4] = system: hCAR promoter; test: NHR-promoter luciferase screen, hCAR promoter; assay type: cell-based, human; conditions: for luciferase activity normalized to lacZ activity and to a control, hCAR: hCAR promoter-luciferase, CV-1 cells, NHR +/- ligand, control = 1.00; for Luc. act., normalized to lacZ / Normalized Luc. act., normalized to control: hCAR promoter, HR/ligand component
In short: as §1

[5] = system: mPOMC promoter; test: NHR-promoter luciferase screen, mPOMC promoter; assay type: cell-based, mouse; conditions: for Results of assays of transcription factor (+/- ligand) with mPOMC: Table 6d, luciferase activity relative to control (control = 1.00); for Luc. act., normalized to lacZ / Normalized Luc. act., normalized to control: mPOMC promoter, HR component with or without ligand; for Normalized Luc. act., normalized to control: relative to control
In short: as §1

[6] = system: mABCA1 promoter; test: NHR-promoter luciferase screen, mABCA1 promoter; assay type: cell-based, mouse; conditions: for Luc. act., normalized to lacZ / Normalized Luc. act., normalized to control: ABCA1 promoter, hormone receptor with or without its ligand; for Normalized Luc. act., normalized to control: relative to control; for mABCA1 promoter reporter activity: transcription factor +/- ligand, control = 1.00
In short: as §1

Molecule	Luc. act., normalized to lacZ [1]	Normalized Luc. act., normalized to control [1]	hPOMC promoter reporter activity [1]	luciferase activity normalized to lacZ activity and to a control, mCAR [2]	Luc. act., normalized to lacZ [2]	Normalized Luc. act., normalized to control [2]	Luc. act., normalized to lacZ [3]	Normalized Luc. act., normalized to control [3]	mDio1 promoter reporter activity [3]	luciferase activity normalized to lacZ activity and to a control, hCAR [4]	Luc. act., normalized to lacZ [4]	Normalized Luc. act., normalized to control [4]	Results of assays of transcription factor (+/- ligand) with mPOMC [5]	Luc. act., normalized to lacZ [5]	Normalized Luc. act., normalized to control [5]	Luc. act., normalized to lacZ [6]	Normalized Luc. act., normalized to control [6]	mABCA1 promoter reporter activity [6]
B1	3.2	0.7	0.74	1.22	46.3	1.2	7.4	1.7	1.66	1.05	33.2	1.1	1.43	98.5	1.4	24.6	4.4	4.39
B2	3.7	0.9	0.87	1.24	47.1	1.2	7.2	1.6	1.61	0.99	31.4	1.0	1.53	105.9	1.5	26.4	4.7	4.69
B3	3.8	0.9	0.89	0.79	30.1	0.8	10.0	2.2	2.23	1.22	38.6	1.2	1.02	70.0	1.0	13.8	2.5	2.46
B4	2.8	0.7	0.66	0.91	34.5	0.9	8.8	2.0	1.97	1.13	35.7	1.1	0.85	58.4	0.8	36.8	6.6	6.55
B5	4.3	1.0	1.00	1.30	49.6	1.3	6.8	1.5	1.54	1.31	41.4	1.3	1.85	127.4	1.8	36.8	6.6	6.55
